Measured values reported in patent CN116535503A.

What was measured:
[1] = target: GDF15-HIS(百普赛斯，CAT#:GD5-H5149) (human) (UniProt Q99988); experiment: ELISA, GDF15-HIS coated
[2] = target: GDF15-HIS(百普赛斯，CAT#:GD5-H5149) (human) (UniProt Q99988); experiment: BLI (ForteBio Octet), antibody captured at 10 μg/ml, GDF15 6.25-200 nM
[3] = target: GDF15-mFC蛋白(GDF15:Genbank登记号NM_004864.3;mFC:Genbank登记号AAH31470.1) (human; mouse) (UniProt Q99988); experiment: competition ELISA: blocks GDF15-mFC binding to coated GFRAL-hFc
[4] = target: GDF15-HIS(百普赛斯，CAT#:GD5-H5149) (human) (UniProt Q99988); experiment: cell-based or functional assay

Chain of GDF15-HIS(百普赛斯，CAT#:GD5-H5149) (human) (Q99988 197-308 limits assumed): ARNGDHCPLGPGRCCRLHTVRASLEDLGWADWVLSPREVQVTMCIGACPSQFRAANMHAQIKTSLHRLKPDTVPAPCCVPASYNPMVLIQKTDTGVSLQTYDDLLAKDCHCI

EC50 [1]: 0.096 µg/mL
OD450.Max [1]: 1.1 OD450
Kd [2]: < 1 pM
koff [2]: < 1e-07 s⁻¹
kon [2]: 711000 M⁻¹ s⁻¹
IC50 [3]: 0.504 µg/mL
OD450.Max [3]: 1.02 OD450
Bottom (fold luciferase activity), HEK293 SRE-LUC2-cRET-GFRAL reporter cells [4]: 1.07
IC50(μg/ml), luciferase in HEK293 SRE-LUC2-cRET-GFRAL reporter cells stimulated with 5 ng/ml GDF15-His [4]: 0.0321 µg/mL
Substance: Ponsegromab(Pfizer;Drug Bank:D11909) (antibody)
